Patent publication US20240425589A1, “CYTOTOXICITY-INDUCING THERAPEUTIC AGENT FOR USE IN TREATMENT OF CANCER” (CHUGAI SEIYAKU KABUSHIKI KAISHA, priority 2021, published 2024)

B1: CS3348: anti-CLDN6/CD3 bispecific antibody, chains SEQ ID NOs 193, 195, 194, 192; used as control (protein)
chain 1: QVQLVESGGGVVQPGGSLRLSCAASGFTFSSYTMSWVREAPGQGLEWMGTISSGGGRTYYPDSVKGRFTISRDNSKNTLYLQMNSLRDEDTAVYYCARGDYRYDGFAYWGEGTLVTVSSASTKGPSVFPLAPSSKSTSGGTAALGCLVEDYFPEPVTVSWNSGALTSGVHTFPAVLESSGLYSLSSVVTVPSSSLGTQTYICNVNHKPSNTKVDERVEPKSCDKTHTCPPCPAPEAAGGPSVFLFPPKPKDTLMISRTPEVTCVVVDVSHEDPEVKFNWYVDGVEVHNAKTKPREEQYASTYRVVSVLTVLHQDWLNGKEYKCKVSNKALPAPIEKTISKAKGQPREPQVYTLPPSREEMTKNQVSLTCLVKGFYPSDIAVEWESNGQPENNYKTTPPVLDSDGSFFLYSKLTVDKSRWQQGNVFSCSVMHEALHNHYTQESLSLSP
chain 2: DIQMTQSPSSLSASVGDRVTITCRASYNIDSYLAWYQKKPGKAPELLIYYSTLLVDGVPDRFSGSRSGTDFTLTISSLQPEDFATYYCQHYYSIPYTFGQGTKVEIERTVAAPSVFIFPPSDKQLKSGTAKVVCLLNNFYPREAKVQWKVDNALQSGNSKESVTEQDSKDSTYSLSSTLTLSKADYEKHKVYACEVTHQGLSSPVTKSFNRGEC
chain 3: QVQLVESGGGVVQPGGSLRLSCAASGFTFSNAWMHWVRKAPGKGLEWVAQIKDKSQNYATYVAESVKGRFTISRADSKNSIYLQMNSLKTEDTAVYYCRYVHYAAGYGVDIWGQGTTVTVSSASTKGPSVFPLAPSSKSTSGGTAALGCLVKDYFPEPVTVSWNSGALTSGVHTFPAVLKSSGLYSLSSVVTVPSSSLGTQTYICNVNHKPSNTKVDKRVEPKSCDKTHTCPPCPAPEAAGGPSVFLFPPKPKDTLMISRTPEVTCVVVDVSHEDPEVKFNWYVDGVEVHNAKTKPREEQYASTYRVVSVLTVLHQDWLNGKEYKCKVSNKALPAPIEKTISKAKGQPREPQVYTLPPSRKEMTKNQVSLTCLVKGFYPSDIAVEWESNGQPENNYKTTPPVLDSDGSFFLYSKLTVDKSRWQQGNVFSCSVMHEALHNHYTQKSLSLSP
chain 4: DIVMTQSPLSLPVTPGEPASISCRSSQPLVHSNRNTYLHWYQEKPGQAPRLLIYKVSNRFSGVPDRFSGSGSGTDFTLKISRVEAEDVGVYYCGQGTQVPYTFGQGTKLEIKRTVAAPSVFIFPPSDEQLKSGTAEVVCLLNNFYPREAKVQWKVDNALQSGNSEESVTEQDSKDSTYSLSSTLELSKADYEKHKVYACEVTHQGLSSPVTKSFNRGEC
B2: CS2961: anti-CLDN6/CD3 bispecific antibody comprising CLDN6 binding Fv CLDN6AE25EK and a CD3 binding Fv (SEQ ID NOs 184, 185) (antibody, V domains shown)
VH: QVQLVESGGGVVQPGGSLRLSCAASGFTFSNAWMHWVRKAPGKGLEWVAQIKDKSQNYATYVAESVKGRFTISRADSKNSIYLQMNSLKTEDTAVYYCRYVHYAAGYGVDIWGQGTTVTVSS
VL: DIVMTQSPLSLPVTPGEPASISCRSSQPLVHSNRNTYLHWYQEKPGQAPRLLIYKVSNRFSGVPDRFSGSGSGTDFTLKISRVEAEDVGVYYCGQGTQVPYTFGQGTKLEIK
modifications: CLDN6 binding Fv CLDN6AE25EK lacks SEQ ID

Tests used:
[1] = Single dose toxicology study; type: in vivo, cynomolgus monkey; settings: cynomolgus monkey, in vivo, iv
Protocol: Potential toxicity of PPU4135 antibody (anti-CLDN6/Dual-Fab tri-specific antibody) was evaluated in toxicity study using cynomolgus monkeys compared with CS3348 antibody (anti-CLDN6/CD3 bispecific antibody). Because both PPU4135 and CS3348 antibodies cross-reacted with their antigens of cynomolgus monkey, cynomolgus monkey was selected as the animal species for evaluations in the in vivo toxicology studies. Since toxicological findings seemed to be more sensitive in male than female animals in the toxicity study with CS3348 (FIG. 14), 2 males were used for evaluation of the PPU4135-mediated toxicity. In these studies, dose levels were set at 100 (for CS3348) or 90 (for PPU4135) micro g/kg, which were approximately 2.57-fold efficacious concentration producing 80% of the maximal response.

[2] = test system: hCLDN6/BaF, hCLDN3/BaF, hCLDN4/BaF, and hCLDN9/BaF; assay: FACS analysis of specificity against CLDN family; type: binding, human; settings: 15 micro g/ml, compared with 6PHU3/TR01
Protocol: Amino acid sequences are highly conserved among CLDN3, CLDN4, CLDN6 and CLDN9. Thus we examined CLDN6 binding specificity of CLDN6 binding Fv comprising 65HQ39E as VH and 54L0532Q38K as VL, by FACS analysis. hCLDN6/BaF, hCLDN3/BaF, hCLDN4/BaF, and hCLDN9/BaF were incubated with an anti-CLDN6/CD3 bispecific antibody (CS2961) comprising the CLDN6 binding Fv CLDN6AE25EK and a CD3 binding Fv (heavy chain variable region SEQ ID NO: 184, light chain variable region SEQ ID NO: 185) at 15 micro g/ml. Another anti-CLDN6/CD3 bispecific antibody (6PHU3/TR01) and an antibody without binding capability to CLDN6 (KLH/TR01) were used as a staining control. 6PHU3/TR01 and KLH/TR01 comprise the same CD3 binding Fv (heavy chain variable region SEQ ID No: 188, light chain variable region SEQ ID NO: 189). The CLDN6 binding Fv of 6PHU3/TR01 comprises a heavy chain variable region shown in SEQ ID NO: 190 and a light chain variable region shown in SEQ ID NO: 191. KLH/TR01 comprises a KLH binding Fv (heavy chain variable region SEQ ID NO: 186, light chain variable region SEQ ID NO: 187).
Binding of each antibody was detected with Alexa Fluor 488-conjugated anti human IgG (Invitrogen). Dead cells were separated by eFlour 780 (Invitrogen) staining. […]

| Molecule | AST, ALT, GLDH, ALP, TBIL, GGT, TBA and CRP [1] | specificity towards CLDN6 among CLDN3, CLDN4, CLDN6, CLDN9 [2] |
| --- | --- | --- |
| B1 | Increased |  |
| B2 |  | better specificity towards CLDN6 |
